Test results from article PMC6993865 (Biochemical Journal, 2020).
Several values for one entry are separate records, joined by “and”; a condition that tells them apart may be missing. Identical values can stand only once.

Molecular target: T1, chymotrypsin-treated recombinant P. falciparum SUB1 (P. falciparum, UniProt Q8I0V0 218-688)
T1 construct: subtilisin-like protease SUB1, P. falciparum, PF3D7_0507500; recombinant, chymotrypsin-treated; also called rPfSUB1; PfSUB1
T1 sequence: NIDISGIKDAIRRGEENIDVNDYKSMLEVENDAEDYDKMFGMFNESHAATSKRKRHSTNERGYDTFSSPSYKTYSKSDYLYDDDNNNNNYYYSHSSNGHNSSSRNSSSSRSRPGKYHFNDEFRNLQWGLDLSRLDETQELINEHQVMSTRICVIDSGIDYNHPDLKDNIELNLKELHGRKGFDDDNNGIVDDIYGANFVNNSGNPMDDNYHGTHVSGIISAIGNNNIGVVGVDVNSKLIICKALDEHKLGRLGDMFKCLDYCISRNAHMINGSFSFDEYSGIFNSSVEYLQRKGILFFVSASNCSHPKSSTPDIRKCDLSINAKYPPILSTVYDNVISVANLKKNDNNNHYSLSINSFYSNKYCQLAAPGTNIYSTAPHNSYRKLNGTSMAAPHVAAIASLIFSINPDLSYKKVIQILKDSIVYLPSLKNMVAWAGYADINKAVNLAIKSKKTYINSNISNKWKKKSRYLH
Assay: enzyme inhibition kinetics (fluorogenic peptide substrate); rSUB1-ProM (7.81-250 nM final) added to ongoing hydrolysis of SERA4st1F-6R12 (0.1 µM, well below Km) by rPfSUB1 (0.045 U in 100 µl); 25 mM Tris-HCl pH 8.2, 25 mM CHAPS, 12 mM CaCl2; 21°C; apparent tight-binding inhibition constant, Ki(app) ~ Ki
Conditions: both partners purified

B1: recombinant Plasmodium falciparum SUB1-ProM (SUB1 propeptide mimic), GST-free (natural protein)
chain: QVTPAGTVLNSNSALISRRINRRKMKNCNNNDLLKVLKMETTYNELPAHNLLMSSKNDINKLFDYINKNEELSKLMNSCGTYVYLKYLGVVIFSIKENVQISHLSEFIQYLLNKNVCIEFNQNVML
notes: SUB1-ProM, P. falciparum 3D7, PF3D7_0507400, residues 28-153 of the 153-residue protein (lacks the predicted 27-residue signal peptide); synthetic gene; also called rSUB1-ProM; PfSUB1-ProM; source: E. coli BL21(R2), purified (Glutathione Sepharose 4B, PreScission cleavage, Superdex 200)
Ki: 5.67 nM and 5.34 nM
